Test [1] deals with monomeric streptavidin variant mSA2. Put plainly: fluorescent binding assay: labeled mSA2 in PBS applied to the protein monolayer, rinsed, fluorescence microscopy. On the procedure:
The binding function of rcSso7d.SA oligomer-PNIPAM thin films was measured using fluorescently-labeled monomeric streptavidin (mSA2) and fluorescently-labeled streptavidin (SA). Details for the expression, purification, and fluorescent labeling of mSA2 are provided below. Samples were prepared by serial dilution of SA or mSA2 in PBS (pH 7.4), human urine (diluted to 50% v/v in PBS, pH 7.4), or blood serum (obtained as the supernatant by centrifuging whole blood at 1500×g for 10 minutes, then diluted to 50% v/v in PBS, pH 7.4). 0.5 μL drops of solutions containing serially diluted fluorescent mSA2 and fluorescent SA samples in PBS (pH 7.4) were gently applied to the surface of each bioconjugate thin film. […] After 1 hour, films were thoroughly rinsed with water for 10 seconds (a time determined to be sufficient to remove unbound molecules from the film, see FIG. 33, dried under filtered airflow, and immediately analyzed for fluorescent signal. Fluorescence microscopy images were acquired at 4× magnification using a Cy5 filter set and exposure time of 5000 ms on an Olympus IX-81 inverted fluorescence microscope with an AxioCam HRC CCD camera. Fluorescent intensity was calculated using ImageJ software⁶⁷ by determining the average fluorescent signal in a rectangular area of the fluorescent image free of defects and occupying no less than half of the full sample application area. […]

Test [2] has as its target T1, streptavidin (UniProt P22629 37-163, limits assumed).
T1 construct: It was used without a stated label in the sandwich assays; also called SA
The test is described as follows: sandwich assay: SA in 50% urine, biotin-HRP/TMB detection. Here is the method: (§1) Each well was submerged in 1 mL of 1% BSA in Milli-Q water, and the 12-well plate was incubated at 37° C. for 30 minutes. The wells were rinsed twice by adding 2 mL of Milli-Q water and gently shaking the well plate at 70 rpm for 5 minutes. 1 mL of streptavidin diluted in PBS, urine, or blood serum (prepared as described in the Fluorescent Assays section) containing 0.1% BSA was then added to each well, and the well plate was shaken at 70 rpm for 4 hours at room temperature. Wells were rinsed twice with 2 mL of Milli-Q water then twice with 2 mL of 0.1% BSA in Milli-Q water by shaking at 70 rpm for 5 minutes. After rinsing, wells were submerged in 1 mL of 200 ng/mL biotin-HRP in Milli-Q water containing 0.1% BSA, and the well plate was shaken at 70 rpm for 1 hour at room temperature. Wells were then rinsed with water and 0.1% BSA as described previously. 1 mL of solution from a Pierce TMB substrate kit (Thermo Fisher Scientific) was added to each well, and the well plate was shaken vigorously at 125 rpm for 15 minutes at room temperature. 1 mL of 2M H2SO4 was added to each well, and the absorbance at 450 nm was read using a Tecan Infinite M200 PRO plate reader.
(§2) The general procedure for this proof-of-concept experiment is diagrammed in FIG. 28. Films were first exposed to SA solutions and rinsed to remove unbound analyte. Taking advantage of the strong interaction between SA and biotin, thin films were then submerged in a solution of biotinylated horseradish peroxidase (biotin-HRP). Bound SA was detected colorimetrically through the HRP-mediated oxidation of 3,3′,5,5′-tetramethylbenzidine (TMB). Attempts to perform this assay using mSA2 as the analyte were unsuccessful, even when run on an rcSso7d.SA monolayer.

In test [3] the target is monomeric streptavidin variant mSA2. The test is described as follows: apparent Kd (Kd,app); fluorescent binding curve, labeled mSA2 in 50% blood serum, 4 h; quadratic fit.
The target of test [4] is T1, streptavidin. The test is described as follows: sandwich assay: SA in 50% blood serum, biotin-HRP/TMB detection. Here is the method: as §1, §2
Test [5] concerns the target T1, streptavidin. Put plainly: apparent Kd (Kd,app); fluorescent binding curve, labeled SA in 50% urine, 4 h; quadratic fit.
For test [6], the target named is monomeric streptavidin variant mSA2. Put plainly: fluorescent binding assay, labeled mSA2; signal three standard deviations above blank. Here is the method:
The binding function of rcSso7d.SA oligomer-PNIPAM thin films was measured using fluorescently-labeled monomeric streptavidin (mSA2) and fluorescently-labeled streptavidin (SA). Details for the expression, purification, and fluorescent labeling of mSA2 are provided below. Samples were prepared by serial dilution of SA or mSA2 in PBS (pH 7.4), human urine (diluted to 50% v/v in PBS, pH 7.4), or blood serum (obtained as the supernatant by centrifuging whole blood at 1500×g for 10 minutes, then diluted to 50% v/v in PBS, pH 7.4). 0.5 μL drops of solutions containing serially diluted fluorescent mSA2 and fluorescent SA samples in PBS (pH 7.4) were gently applied to the surface of each bioconjugate thin film. Films were incubated in a sealed chamber saturated with water vapor at room temperature to prevent to prevent drying of the applied fluorescent samples. After 1 hour, films were thoroughly rinsed with water for 10 seconds (a time determined to be sufficient to remove unbound molecules from the film, see FIG. 33, dried under filtered airflow, and immediately analyzed for fluorescent signal. Fluorescence microscopy images were acquired at 4× magnification using a Cy5 filter set and exposure time of 5000 ms on an Olympus IX-81 inverted fluorescence microscope with an AxioCam HRC CCD camera. Fluorescent intensity was calculated using ImageJ software⁶⁷ by determining the average fluorescent signal in a rectangular area of the fluorescent image free of defects and occupying no less than half of the full sample application area.
Oligomerization of rcSso7d.SA also brings about a decrease in biosensor limit of detection (LOD). […] While all thin films display improvements up to threefold in LOD over the monolayer, the trend in LOD with respect to degree of oligomerization is non-monotonic. The primary factor that is expected to affect LOD in the studied biosensors is number of binding sites, as more binding sites enable a greater number of analyte molecules to be captured and shifts analyte-receptor equilibrium in favor of binding events.

For test [7] the target is unchanged. Put plainly: fluorescent binding assay, labeled mSA2 in PBS on the monolayer, 4 h exposure.
Test [8] has as its target T1, streptavidin. Put plainly: apparent Kd (Kd,app); fluorescent binding curve, labeled SA in PBS, 4 h exposure; quadratic fit.

T1 sequence (P22629 37-163 limits assumed): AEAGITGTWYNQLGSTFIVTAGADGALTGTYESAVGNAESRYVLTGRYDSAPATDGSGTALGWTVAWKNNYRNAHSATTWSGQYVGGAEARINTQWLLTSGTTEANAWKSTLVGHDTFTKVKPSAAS

B1: rcSso7d.SA monolayer (designed binder)
chain: MGSIHHHHHHSSGLVPRGSHMCATVKFTYQGEEKQVDISKIKIVARDGQYIDFKYDEGGGAYGYGWVSEKDAPKELLQMLEKQ
modifications: EDC/NHS-activated protein coupled to an amine-functionalized silicon wafer
notes: also called monomeric rcSso7d.SA; surface-immobilized rcSso7d.SA
On to B1, for which the “EC50 (read off the curve)” value in test [1] was ~2 µM; in test [7], ~3 µM. Besides, the LOD stood at 32 nM in the test with streptavidin [2] and 40 nM with streptavidin [4]. In addition, the figures for the Kd (in test [3]; with streptavidin [5]; with streptavidin [8]) were 62 µM, 47 µM and 8 µM, respectively. Besides, in test [6], the “limit of detection (LOD)” value came to 360 nM.

The term EC50 (read off the curve) denotes the concentration giving half of the maximal effect. A high value points to a need for much substance.
